Experimental data: paper PMC4985284, “Monochromatic multicomponent fluorescence sedimentation velocity for the study of high-affinity protein interactions” (eLife, 2016)
Several values for one entry are separate records, joined by “and”; a condition that tells them apart may be missing. Equal entries are not always repeated. Where two headings read alike, the source gives them in different places.

B1: Dylight488-labeled GluA2-ATD (amino-terminal domain of the AMPA receptor GluA2) (domain or fragment, UniProt P19491 22-404, looked up)
chain: VSSNSIQIGGLFPRGADQEYSAFRVGMVQFSTSEFRLTPHIDNLEVANSFAVTNAFCSQFSRGVYAIFGFYDKKSVNTITSFCGTLHVSFITPSFPTDGTHPFVIQMRPDLKGALLSLIEYYQWDKFAYLYDSDRGLSTLQAVLDSAAEKKWQVTAINVGNINNDKKDETYRSLFQDLELKKERRVILDCERDKVNDIVDQVITIGKHVKGYHYIIANLGFTDGDLLKIQFGGANVSGFQIVDYDDSLVSKFIERWSTLEEKEYPGAHTATIKYTSALTYDAVQVMTEAFRNLRKQRIEISRRGNAGDCLANPAVPWGQGVEIERALKQVQVEGLSGNIKFDQNGKRINYTINIMELKTNGPRKIGYWSEVDKMVVTLTELPS
modifications: Dylight488 (N-hydroxysuccinimide ester-activated dye); native complex glycosylation
notes: signal peptide in the construct; secreted; Cut with thrombin after IMAC; also called DL488-GluA2; source: HEK293T, transient transfection, secreted, purified (HiTrap NTA, thrombin, HiTrap Q); labelled with Dylight488 and separated from free dye on Superdex 75; not shown: His8, C-terminal, cleaved
B2: fusion protein of GluA3-ATD and rsEGFP2 (rsEGFP2-GluA3) (domain or fragment, UniProt P19492 23-408, looked up)
chain: GFPNTISIGGLFMRNTVQEHSAFRFAVQLYNTNQNTTEKPFHLNYHVDHLDSSNSFSVTNAFCSQFSRGVYAIFGFYDQMSMNTLTSFCGALHTSFVTPSFPTDADVQFVIQMRPALKGAILSLLSYYKWEKFVYLYDTERGFSVLQAIMEAAVQNNWQVTARSVGNIKDVQEFRRIIEEMDRRQEKRYLIDCEVERINTILEQVVILGKHSRGYHYMLANLGFTDILLERVMHGGANITGFQIVNNENPMVQQFIQRWVRLDEREFPEAKNAPLKYTSALTHDAILVIAEAFRYLRRQRVDVSRRGSAGDCLANPAVPWSQGIDIERALKMVQVQGMTGNIQFDTYGRRTNYTIDVYEMKVSGSRKAGYWNEYERFVPFSDQQIS
modifications: native complex glycosylation
notes: GluA3 AMPA receptor amino-terminal domain, residues Gly23-Ser408; The fluorescent protein is the detection tag and is not written as a part; it is joined by SGSG (before) and SGS (after); The methods call the fluorescent protein rsEGFP, the results rsEGFP2; Cut with thrombin; also called rsEGFP-GluA3 ATD fusion construct; source: HEK293T, transient transfection, secreted, purified (HiTrap NTA, …)

Key:
[1] = target: GluA3 ATD (Rattus norvegicus) (UniProt P19492); conditions: cited from earlier work
[2] = target: GluA2 ATD (Rattus norvegicus) (UniProt P19491); conditions: cited from earlier work
[3] = target: GluA3 ATD (Rattus norvegicus) (UniProt P19492); conditions: cited from earlier work; remark: listed apart in the source
[4] = target: GluA2 ATD (Rattus norvegicus) (UniProt P19491); conditions: cited from earlier work; remark: listed apart in the source
[5] = target: B2; experiment: AUC; FRAP-like FDS-SV, equimolar mixtures of rsEGFP2-GluA3 and DL488-GluA2, 20 min stationary 488 nm exposure at 6.5 cm before scanning, 50,000 rpm, 20°C; component sw isotherm with competitive homo- and hetero-dimerization model; conditions: both partners purified
[6] = target: the molecule itself; experiment: AUC; fluorescence-detected sedimentation velocity (FDS-SV), dilution series of DL488-GluA2 from 0.2 nM to 200 nM, 50,000 rpm, 20°C, 488 nm excitation; c(s) and sw isotherm with monomer-dimer model; dimer to monomers; 0.1 mg/ml unlabeled BSA added
[7] = target: B2; experiment: AUC; MCMC FDS-SV, equimolar dilution series of DL488-GluA2 and rsEGFP2-GluA3 from 0.1-30 nM, 13 mW excitation beam, 50,000 rpm, 20°C; global fit of component sw isotherms with a linked homo- and hetero-dimerization model, K_(d,22) fixed at 27.1 nM; conditions: both partners purified
[8] = target: B1; experiment: as above; conditions: both partners purified

In the case of GluA3 ATD (from UniProt P19492), the Kd [1] is listed as 5.6 µM.

For GluA2 ATD (from UniProt P19491), the Kd [2] is given as 1.8 nM, the Kd [3] is given as 1.3 nM and the Kd [4] is given as 20.5 nM.

In the case of B1, the Kd [5] is reported as 0.68 nM, the Kd [6] is reported as 24 nM and 27.1 nM and the “stoichiometry N” value [6] is reported as 2. It also gave a Kd [7] of 0.32 nM.

In the case of B2, the “stoichiometry N” value [8] is reported as 1.
